Among the data in the supplement of paper PMC12042874 are amyloid nucleation score values, retold here.

± gives the uncertainty stated by the source.

This data set in a line: amyloid nucleation score (Sup35N fusion, yeast selection) (log enrichment); library NNK1; higher = more nucleation; inactive = no reads after selection. The gist of the method:
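Sup35N fusions to peptides of 20 random codons were expressed in psi-negative yeast, induced 24 hours with 100 μM copper sulfate, and grown 7 days at 30°C on medium lacking adenine and uracil. Input and output plasmid inserts were sequenced by Illumina. The nucleation score is the DiMSum log enrichment of output over input reads, centred on the mode score of non-aggregating sequences. Sequences with under 100 input reads were excluded.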

Consider IYIIPFDRNLYPISIHVLVR, for which the amyloid nucleation score entry was “inactive”.
Regarding LGTGCA, the amyloid nucleation score is -0.507 ± 0.83.
The substance CFLSLVWQHGHWWEGLESRL gave an amyloid nucleation score of 0.714 ± 0.53.
As for LFVFPVESCMCMQLRVAQSK, the amyloid nucleation score stood at 0.642 ± 0.62.
The same measure for PLRSRSGVSL: 1.09 ± 0.62; for LKEFISCGPGCINWLHGKDW: -0.519 ± 0.37.
Consider CVKSYK, for which the amyloid nucleation score was determined as 0.48 ± 0.66.
In turn, GLLIVGRRYLGGADVDIHEE displayed an amyloid nucleation score of 0.713 ± 0.68.
The substance MSYRD yielded an amyloid nucleation score of -0.995 ± 1.7.
In turn, NCGSVFFYGPIVGFHRLGLV showed an amyloid nucleation score of 0.967 ± 0.44.
As for FCEWYLTDDFFYSLCFFFNE, the amyloid nucleation score was 0.031 ± 0.55.
The substance FSMTCYVWLITLAKMTRTFQ had an amyloid nucleation score of 0.159 ± 0.73.
Take WIMKGY: the amyloid nucleation score is -0.123 ± 1.1.
Consider RILVVNWVYPSTMNGVSQWS, for which the amyloid nucleation score came to 2.63 ± 0.2.
As for GARQHATVAREAATLCF, the amyloid nucleation score worked out at 0.094 ± 1.4.
In the case of DSRDVNSSLIIRVRVEDGTL, the amyloid nucleation score was -1.2 ± 1.5.
As for GVHYYHLASWTWISFLITRR, the amyloid nucleation score was determined as 0.424 ± 0.85.
CVWMVETRQWREGFKCMPER yielded an amyloid nucleation score of 0.532 ± 0.97.
TMVVNLARRAPPVLPSGRMT: the amyloid nucleation score is 0.71 ± 0.74.
To TFGGHNVAGASMHGSFGGSL belongs 0.242 ± 0.3; to RIMPEKGRNSHWMYIRVQER, 1.12 ± 0.58.
On to ALITFSRGWLAPLMGQQMVL, for which the amyloid nucleation score entry is “inactive”.
RMDFMWLVKI had an amyloid nucleation score of 4.57 ± 0.056.
Regarding NTVQNSMG, the amyloid nucleation score entry is “inactive”.
As to AWGCMMAYFTGRLISEVSNS, the amyloid nucleation score is -0.529 ± 0.36.
In the case of LKDRGYQKYFNSGLIGCNAS, the amyloid nucleation score was -0.096 ± 0.47.
Turning to GLEWGGVKTQMKSWTMRMGG, the amyloid nucleation score was -1.4 ± 1.6.
The same measure for NLFNYLSFD: -0.675 ± 0.49; for ACRGPNSHRFTGILHIFFLE: 0.705 ± 0.67.
For LGRIDRWKDQWCSLAELKS, the amyloid nucleation score is -0.383 ± 1.7.
For CVLFESQ, the amyloid nucleation score is -0.188 ± 0.44.
To AFKWTSCYIFPLNWRKLFN belongs -0.336 ± 0.34.
For RYLFLDWSSESRCPFAASNE, the amyloid nucleation score stood at 0.104 ± 0.84.
To GFCFNECFLAGV belongs -0.285 ± 0.59; to GIMSRDGKICMVSV, -0.091 ± 0.81; to NKNTS, -0.45 ± 0.54.
For the substance QMYVVMLVGVLFCWGTPYRL, the amyloid nucleation score is 0.301 ± 0.39.
The substance STTSMPDWLNVWVSRSSSVV returned an amyloid nucleation score of 1.06 ± 0.28.
Regarding PLYLW, the amyloid nucleation score result was “inactive”.
The same measure for TPNMCGWLVLTSM: -0.448 ± 0.62; for SLFLMIVVYHVHVRALYILV: 0.531 ± 0.93.
As for DCMFYVDRTGRSIGVVSIVE, the amyloid nucleation score is -0.021 ± 0.28.
DGVVCMNAVCFQTMYVMYWL: the amyloid nucleation score came out at 6.69 ± 0.08.
To SSVKTVDLNCI belongs -0.125 ± 0.37; to IDHPTVKLIRYSAIHIALVT, 0.093 ± 0.28.
DMPTS yielded an amyloid nucleation score of 0.45 ± 0.75.
Take ETSVRMVFFVKRLTGYMNLR: the amyloid nucleation score was -0.277 ± 0.33.
The same measure for AYKVSRKLKVLRFDFIEV: -0.477 ± 0.71; for MLKGMQSDSLKLNGDVDPCV: 0.175 ± 0.28; for RGMKCIMSSKDVGS: -1.13 ± 2.4.
Regarding TFVYLCVAHS, the amyloid nucleation score is 1.07 ± 0.53.
GLRCFCTFHCMWFVLNSSN: the amyloid nucleation score was determined as 0.025 ± 0.34.
VEGRRFDINAWRDWTKGVR: the amyloid nucleation score is -0.238 ± 0.3.
In turn, WPELIFNGVPMSSCVLPGLF gave an amyloid nucleation score of 1.12 ± 0.6.
In the case of RDGPSK, the amyloid nucleation score was -0.422 ± 0.33.
ALCVDGDAVVTWDTILNEHF registered an amyloid nucleation score of -0.361 ± 0.97.
Substance GMVSIL came in with an amyloid nucleation score of -0.278 ± 1.2.
For the substance WSFQPGRVVFHMFERGDHCC, the amyloid nucleation score is 0.187 ± 0.4.
In the case of EVPSMRVNAPLKV, the amyloid nucleation score entry is “inactive”.
In turn, RLVGGPRRASITKNWYTEK registered an amyloid nucleation score of -0.649 ± 0.73.
To LNLTCDHSPSYLLIFFLMSI belongs 0.719 ± 0.2; to VINWLCWVYLECLWYYWMVG, “inactive”.
In turn, WIGNRVSSMFDGTGS showed an amyloid nucleation score of 0.538 ± 0.55.
GYLLCAG: the amyloid nucleation score is 0.549 ± 0.71.
SVWIKSST: the amyloid nucleation score is -0.285 ± 1.4.
QLLSLCLDQTVKRRYFNFRA displayed an amyloid nucleation score of -0.073 ± 0.26.
Consider SIVKRNLNAFAGLSLYMIFG, for which the amyloid nucleation score was -0.764 ± 0.54.
On to SPESRRQWCL, for which the amyloid nucleation score result is “inactive”.
For the substance MVVVLLVD, the amyloid nucleation score was -0.438 ± 0.9.
In turn, MDALMCYIFFKFE had an amyloid nucleation score of 4.89 ± 0.064.
Consider HDSAELDSRYNSASCVSLWL, for which the amyloid nucleation score is -0.213 ± 1.1.
The same measure for WFVTFVWVSSVRTILP: 0.361 ± 1.
In turn, FVRCSAKMDLWSVLTVCSFC had an amyloid nucleation score of 3.2 ± 0.12.
Consider RCMDHCSLDIQVRVLCKVSV, for which the amyloid nucleation score was -0.709 ± 0.66.
For the substance NFLFCFCHYCIWKVCTVAGC, the amyloid nucleation score was -0.073 ± 0.45.
To NALYSWAPLDCIMPRIVS belongs 0.299 ± 0.47; to GLRYSVYNCFLVCRGRREWP, 5.54 ± 0.057; to SWYLMIKVIETVSGVTGWVG, 2.39 ± 0.12.
In the case of SRVLSCEGWLK, the amyloid nucleation score was -0.051 ± 0.9.
The substance WVWLHDKASLNLL gave an amyloid nucleation score of 0.007 ± 0.72.
In turn, SITFRRSYTNM registered an amyloid nucleation score of 0.411 ± 0.67.
VVWYLMVFWPCDSLSPMSRS: the amyloid nucleation score is 0.559 ± 0.4.
The same measure for LCRIKGHRFIQVDTGEAVWS: -0.629 ± 0.61; for TFKRYI: 1.28 ± 0.56.
With VWENQLVWMVWWWEGTGS, the amyloid nucleation score came to 0.527 ± 0.49.
Consider NTANIIDTGGDSTPLISRSC, for which the amyloid nucleation score was -0.958 ± 0.96.
IWQFDWPHRGIEMRVRRDMT came in with an amyloid nucleation score of 0.135 ± 0.69.
On to RSLQDGILKTKNCL, for which the amyloid nucleation score is 0.659 ± 0.24.
To MFQPFPFIHQVDQPFPKSVQ belongs 0.51 ± 0.47; to MNFDNGDFYWFVTRIISITC, 0.99 ± 0.19.
For TRYSTSISGC, the amyloid nucleation score worked out at 0.332 ± 0.69.
The substance LSLSMPYSGVLSELYAIATF yielded an amyloid nucleation score of -0.384 ± 0.27.
Substance GVMCIMYNFSHYYLSVVNNR gave an amyloid nucleation score of 7.77 ± 0.083.
LRSSVDLTRGESYNSGKFFN had an amyloid nucleation score of 0.435 ± 0.32.
In the case of SYGYSMLAGVWT, the amyloid nucleation score was 0.057 ± 1.1.
In the case of DSVLLRFYDCCEMFYLHSLL, the amyloid nucleation score is 0.48 ± 0.67.
With YLTYAPQVWLSAGFNSNEGS, the amyloid nucleation score was 5.71 ± 0.078.
The substance FWGWLRPWLLKSSEDPLKLE gave an amyloid nucleation score of -0.617 ± 0.57.
On to SHTCYRIVTAPDTLLVSLGV, for which the amyloid nucleation score came out at 0.438 ± 0.36.
AWHEGFHCCN: the amyloid nucleation score is 1.21 ± 0.31.
On to FLSVFRL, for which the amyloid nucleation score is -0.884 ± 1.1.
Substance TPLNTLYRLPMGNWLG showed an amyloid nucleation score of 0.06 ± 0.26.
For the substance VAISDDDVLVWMYFS, the amyloid nucleation score came out at 0.154 ± 0.44.
Turning to FGWLKPR, the amyloid nucleation score worked out at 0.994 ± 0.49.
LMWDIWVSYGGAKMSDWSKG displayed an amyloid nucleation score of -0.225 ± 0.31.
Regarding PGMKISSFCYTTMNHYNKSF, the amyloid nucleation score is -0.375 ± 1.2.
RSYGLAFGYFHNHVRSFARV displayed an amyloid nucleation score of -0.735 ± 0.81.
GTCTMTKSFMIDIF yielded an amyloid nucleation score of 0.235 ± 0.25.
As to CHEALDLMCHADTVIFALAE, the amyloid nucleation score was -0.216 ± 0.57.
Turning to SFTYLCFKQILKPKCTLLAP, the amyloid nucleation score entry was “inactive”.
In the case of RYCNKTFSTLSPVHLF, the amyloid nucleation score stood at 1.11 ± 0.97.
The substance CFFFPPEYTKRLKSSSMVRR registered an amyloid nucleation score of -0.652 ± 0.9.
To VSWHGSVLHRACMKWVCMCG belongs 0.51 ± 0.79; to TYNVLSTLWRFCVIVLRICC, 0.558 ± 1.1; to YIRNTLTPEMVNWRDLRVPR, -0.152 ± 0.73.
The substance NIPQLVVFKWMLSTC gave an amyloid nucleation score of -0.047 ± 1.1.
NYVYPRVLYSFQVLLYPSKD displayed an amyloid nucleation score of 0.704 ± 0.49.
With AYNIVDRSYLGSCKPESFVG, the amyloid nucleation score is 0.469 ± 0.44.
AMGTLVIKGRYFYIFSASFG: the amyloid nucleation score was -1.52 ± 2.4.
In turn, LKSYSTFVIRMNWLGDEGEL came in with an amyloid nucleation score of -0.874 ± 0.8.
For the substance SYFRFVLYN, the amyloid nucleation score came to 0.052 ± 1.1.
The same measure for ASMID: 0.002 ± 0.27; for PSTREYFNCTKMAYYCIRRP: -0.005 ± 1.7; for VRPMSDNSRVCVKSDNRSTG: -1.14 ± 0.93.
Regarding YSPDLSRASFCFLWYISSS, the amyloid nucleation score result was “inactive”.
DESFCVVLFFFLCCLWFCHL yielded an amyloid nucleation score of 0.184 ± 0.7.
The substance VNPNGGEDNVLGCPIRSWQW displayed an amyloid nucleation score of -0.031 ± 1.2.
In turn, GASWNCAQYRMMD gave an amyloid nucleation score of -0.338 ± 1.7.
The substance ASRYRKFTLWN showed an amyloid nucleation score of -0.466 ± 0.31.
To MTYITTGSSKYEGYKFTCMT belongs 0.502 ± 0.51; to MINHSEPQHCMYV, 0.466 ± 0.9.
As to FGSMFVRLFFGSLNKYGMVK, the amyloid nucleation score is -0.712 ± 0.92.
The same measure for RVRNMPTPSLSHMNLFSSVG: -0.038 ± 0.35; for FFFIQTSPLHAQYAISLVLR: -0.057 ± 0.52.
Turning to FFTHCMWD, the amyloid nucleation score was -1.05 ± 1.1.
As for FQFESHW, the amyloid nucleation score turned out to be 1.85 ± 0.24.
NDGPNSIIYFYMIFI: the amyloid nucleation score was 4.58 ± 0.12.
ENGLFKF gave an amyloid nucleation score of 0.695 ± 0.32.
Take DLDVFYCWGAYLAEGDLVCE: the amyloid nucleation score stood at 0.146 ± 0.41.
GIYGQWTQ returned an amyloid nucleation score of 0.697 ± 0.85.
The substance RIGNGVLKDYRLFFFETSFT showed an amyloid nucleation score of -0.727 ± 0.36.
